Measured values as given in patent US20040081659A1 (MERCK, published 2004).

Target: free prostate specific antigen (PSA) (human, UniProt P07288 25-261)
Test: cell-based or functional assay

Time to 50% Substrate Cleavage by York PSA (Min); cell gives percent cleaved at 1 hour	Binder
34 % cleaved at 1 hour	XSSXQSSP (N-terminal acetyl; 4-trans-L-hydroxyproline at 1; Chg at 4; D-Pro at 8, esterified to the 4-O of des-acetylvinblastine) [4-O-(Ac-4-trans-L-HypSSChgQSS-(d)-Pro)-(dAc)-VIN]
4 % cleaved at 1 hour	XXQSSX (N-terminal hydroxyacetyl ((2-OH)Ac); Chg at 2; sarcosine at 6, esterified to the 4-O of des-acetylvinblastine) [4-O-[(2-OH)Ac-SChgQSS-Sar]-dAc-VIN]
12 % cleaved at 1 hour	XSSXQSXX (N-terminal acetyl; 4-trans-L-hydroxyproline at 1 and 8; Chg at 4; D-Ser at 7; C-terminus esterified to the 4-O of des-acetylvinblastine) [4-O-(Ac-4-trans-L-HypSSChgQ-S(dS)-4-trans-L-Hyp)-dAc-VIN]
